The subject of series [1] is ZC3H12D short isoform (hZC36), Alexa Fluor 488 labeled (Homo sapiens). The series is described as follows: FCS. Particulars: 1 nM protein, 10 nM RNA; EMSA: 100 mM HEPES pH 7.3, 200 mM KCl, 10 mM MgCl2, 10 mM DTT, glycerol, tRNA; FCS: protein diluted in 50 mM HEPES pH 7.4, 100 mM NaCl; temperature not given.
Series [2] concerns the target T1, ZC3H12D short isoform (hZC36) (Homo sapiens, UniProt A2A288-4 1-321).
T1 sequence: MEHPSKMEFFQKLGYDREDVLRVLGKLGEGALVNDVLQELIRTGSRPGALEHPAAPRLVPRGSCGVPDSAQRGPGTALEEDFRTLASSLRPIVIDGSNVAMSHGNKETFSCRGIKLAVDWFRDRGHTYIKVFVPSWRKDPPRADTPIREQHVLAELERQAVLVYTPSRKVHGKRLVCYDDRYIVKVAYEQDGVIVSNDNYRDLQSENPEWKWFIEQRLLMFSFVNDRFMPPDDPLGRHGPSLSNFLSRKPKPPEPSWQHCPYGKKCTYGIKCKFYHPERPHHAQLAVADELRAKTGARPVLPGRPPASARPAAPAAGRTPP
The series is described as follows: EMSA; tRNA; very rough estimate by authors; EMSA: 100 mM HEPES pH 7.3, 200 mM KCl, 10 mM MgCl2, 10 mM DTT, glycerol, tRNA; FCS: protein diluted in 50 mM HEPES pH 7.4, 100 mM NaCl; temperature not given. The settings on record: protein: recombinant; tags: C-terminal myc-FLAG (pCMV6-Entry).

Broadly, the Kd is the equilibrium constant for the complex coming apart. In series [1], IL1b-mRNA full length showed a dissociation constant (Kd) of 1 nM. The same measure, in the same setting: the result for bactin-mRNA reads 1 nM. As to UAUUUAUUUAUGUAUUUAUUGAUUGGUUGAUCUAUUUAAGUUGAUUCAAG (ssRNA) [EMSA probe 5], the Kd in series [2] is approximately 31.6 nM.

These data come from paper PMC8208975, “Extracellular mRNA transported to the nucleus exerts translation-independent function”.
